Data as given in US20030232051A1.

Experiments:
Assay in all cases: cell-based or functional assay
[1] = target: 2B4 (CD244) (on human NK cells) (human) (UniProt Q9BZW8)
[2] = target: CD16 (on human NK cells) (human) (UniProt P08637)
[3] = target: HA-2DL4 (RY-GT) mutant (human) (UniProt Q99706)
[4] = target: HA-2DL4 (epitope-tagged 2DL4) (human) (UniProt Q99706)
Chain of HA-2DL4 (epitope-tagged 2DL4) (human) (Q99706 24-377): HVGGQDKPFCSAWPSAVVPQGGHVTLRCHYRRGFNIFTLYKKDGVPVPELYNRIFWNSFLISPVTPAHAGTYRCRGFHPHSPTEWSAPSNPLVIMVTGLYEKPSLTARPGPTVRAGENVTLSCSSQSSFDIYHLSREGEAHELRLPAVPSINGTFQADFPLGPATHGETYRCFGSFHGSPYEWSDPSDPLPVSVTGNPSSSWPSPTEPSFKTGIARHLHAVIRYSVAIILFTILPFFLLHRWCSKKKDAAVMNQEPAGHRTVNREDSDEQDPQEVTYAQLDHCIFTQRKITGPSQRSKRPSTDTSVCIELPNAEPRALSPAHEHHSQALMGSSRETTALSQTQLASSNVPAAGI

Chain of CD16 (on human NK cells) (human) (P08637 17-254): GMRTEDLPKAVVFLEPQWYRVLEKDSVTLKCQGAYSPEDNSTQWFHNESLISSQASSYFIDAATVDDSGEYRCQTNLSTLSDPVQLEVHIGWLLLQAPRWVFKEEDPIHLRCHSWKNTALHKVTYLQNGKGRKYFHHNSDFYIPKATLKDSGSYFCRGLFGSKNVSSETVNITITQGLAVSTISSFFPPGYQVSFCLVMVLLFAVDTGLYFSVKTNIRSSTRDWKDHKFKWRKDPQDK
Chain of 2B4 (CD244) (on human NK cells) (human) (Q9BZW8 22-370): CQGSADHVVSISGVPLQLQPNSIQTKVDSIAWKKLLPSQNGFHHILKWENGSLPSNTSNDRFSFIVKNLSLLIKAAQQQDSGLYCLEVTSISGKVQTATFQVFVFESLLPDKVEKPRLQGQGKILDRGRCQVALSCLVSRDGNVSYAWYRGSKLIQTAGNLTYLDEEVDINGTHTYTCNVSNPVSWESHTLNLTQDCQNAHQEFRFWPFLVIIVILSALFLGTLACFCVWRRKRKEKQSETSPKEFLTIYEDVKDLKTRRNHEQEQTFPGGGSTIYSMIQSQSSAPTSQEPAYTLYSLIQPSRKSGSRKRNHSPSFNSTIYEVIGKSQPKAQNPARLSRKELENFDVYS
Chain of HA-2DL4 (RY-GT) mutant (human) (Q99706 24-377, change not shown): as the sequence (Q99706 24-377) above

anti-2B4 mAb C1.7 (IgG1; Beckman Coulter) (antibody)
increase in IFN-gamma release by IL-2-activated NK cells with P815 cells over that induced by control IgG (fold over control IgG) [1]: 1.55
increase in IFN-gamma release by resting NK cells with P815 cells over control IgG (fold over control IgG) [1]: 2.1
ratio of lysis of P815 cells by IL-2-activated NK cells over that obtained with control Ig (fold over control Ig) [1]: 3.3
ratio of lysis of P815 cells by resting NK cells over that obtained with control Ig (fold over control Ig) [1]: 3.1

anti-CD16 mAb 3G8 (IgG1; Medarex) (antibody)
increase in IFN-gamma release by IL-2-activated NK cells with P815 cells over that induced by control IgG (fold over control IgG) [2]: 20.1
increase in IFN-gamma release by resting NK cells with P815 cells over control IgG (fold over control IgG) [2]: 4.2
ratio of lysis of P815 cells by IL-2-activated NK cells over that obtained with control Ig (fold over control Ig) [2]: 4.8
ratio of lysis of P815 cells by resting NK cells over that obtained with control Ig (fold over control Ig) [2]: 4.9

anti-HA mAb 16B12 (IgG1; Covance) (antibody)
fold activation of lysis of P815 cells by vaccinia-infected IL-2-activated NK cells (fold over control Ig) [3]: 0.56
fold activation of lysis of P815 cells by vaccinia-infected IL-2-activated NK cells (fold over control Ig) [4]: 2.9
